# Measurements from PMC5913336, “True equilibrium measurement of transcription factor-DNA binding affinities using automated polarization microscopy”.
# T1: Bicoid DBD-GST (Bcd) (UniProt P09081 83-170)
# T1 sequence: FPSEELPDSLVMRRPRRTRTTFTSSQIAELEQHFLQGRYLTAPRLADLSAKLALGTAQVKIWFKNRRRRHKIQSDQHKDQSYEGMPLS
# B1: Bcd competitor 13 (A5C) (dsDNA)
# DNA 1: TCGACGGTCATCCCTA
# DNA 2: TAGGGATGACGGTCGA
# B2: Bcd competitor 14 (A5G) (dsDNA)
# DNA 1: TCGACGGTGATCCCTA
# DNA 2: TAGGGATCACGGTCGA
# B3: Bcd competitor 15 (A5T) (dsDNA)
# DNA 1: TCGACGGTTATCCCTA
# DNA 2: TAGGGATAACGGTCGA
# B4: Bcd competitor 16 (A6C) (dsDNA)
# DNA 1: TCGACGGTACTCCCTA
# DNA 2: TAGGGAGTACGGTCGA
# B5: Bcd competitor 17 (A6G) (dsDNA)
# DNA 1: TCGACGGTAGTCCCTA
# DNA 2: TAGGGACTACGGTCGA
# B6: Bcd competitor 18 (A6T) (dsDNA)
# DNA 1: TCGACGGTATTCCCTA
# DNA 2: TAGGGAATACGGTCGA
# B7: Bcd competitor 19 (T7C) (dsDNA)
# DNA 1: TCGACGGTAACCCCTA
# DNA 2: TAGGGGTTACGGTCGA
# B8: Bcd competitor 20 (T7G) (dsDNA)
# DNA 1: TCGACGGTAAGCCCTA
# DNA 2: TAGGGCTTACGGTCGA
# B9: Bcd competitor 21 (T7A) (dsDNA)
# DNA 1: TCGACGGTAAACCCTA
# DNA 2: TAGGGTTTACGGTCGA
# B10: Bcd competitor 22 (C8G) (dsDNA)
# DNA 1: TCGACGGTAATGCCTA
# DNA 2: TAGGCATTACGGTCGA
# B11: Bcd competitor 23 (C8T) (dsDNA)
# DNA 1: TCGACGGTAATTCCTA
# DNA 2: TAGGAATTACGGTCGA
# B12: Bcd competitor 24 (C8A) (dsDNA)
# DNA 1: TCGACGGTAATACCTA
# DNA 2: TAGGTATTACGGTCGA
# B13: Bcd competitor 25 (C9G) (dsDNA)
# DNA 1: TCGACGGTAATCGCTA
# DNA 2: TAGCGATTACGGTCGA
# B14: Bcd competitor 26 (C9T) (dsDNA)
# DNA 1: TCGACGGTAATCTCTA
# DNA 2: TAGAGATTACGGTCGA
# B15: Bcd competitor 27 (C9A) (dsDNA)
# DNA 1: TCGACGGTAATCACTA
# DNA 2: TAGTGATTACGGTCGA
# B16: Bcd competitor 1 (C1G) (dsDNA)
# DNA 1: TCGAGGGTAATCCCTA
# DNA 2: TAGGGATTACGCTCGA
# B17: Bcd competitor 28 (C10G) (dsDNA)
# DNA 1: TCGACGGTAATCCGTA
# DNA 2: TACGGATTACGGTCGA
# B18: Bcd competitor 29 (C10T) (dsDNA)
# DNA 1: TCGACGGTAATCCTTA
# DNA 2: TAAGGATTACGGTCGA
# B19: Bcd competitor 30 (C10A) (dsDNA)
# DNA 1: TCGACGGTAATCCATA
# DNA 2: TATGGATTACGGTCGA
# How the values were obtained:
# Conditions in all cases: protein: recombinant; tags: N-terminal GST; blunt, G:G mismatch at position 6
# [1] = molecular target: T1, Bicoid DBD-GST (Bcd); experiment: competitive fluorescence anisotropy (HiP-FA); mean of replicates 63.883, 64.716; HiP-FA: 33 mM phosphate pH 7.0, 90 mM NaCl, 0.01% Tween 20, 0.1 mM DTT, 0.5% agarose; conventional titration and EMSA: 20 mM Tris-acetate pH 7.0, 50 nM (sic) NaCl, 0.01% Tween-20, 0.1 mM DTT
# [2] = molecular target: T1, Bicoid DBD-GST (Bcd); experiment: competitive fluorescence anisotropy (HiP-FA); mean of replicates 8.833, 9.124; HiP-FA: 33 mM phosphate pH 7.0, 90 mM NaCl, 0.01% Tween 20, 0.1 mM DTT, 0.5% agarose; conventional titration and EMSA: 20 mM Tris-acetate pH 7.0, 50 nM (sic) NaCl, 0.01% Tween-20, 0.1 mM DTT
# [3] = molecular target: T1, Bicoid DBD-GST (Bcd); experiment: competitive fluorescence anisotropy (HiP-FA); mean of replicates 29.656, 29.169; HiP-FA: 33 mM phosphate pH 7.0, 90 mM NaCl, 0.01% Tween 20, 0.1 mM DTT, 0.5% agarose; conventional titration and EMSA: 20 mM Tris-acetate pH 7.0, 50 nM (sic) NaCl, 0.01% Tween-20, 0.1 mM DTT
# [4] = molecular target: T1, Bicoid DBD-GST (Bcd); experiment: competitive fluorescence anisotropy (HiP-FA); mean of replicates 143.671, 148.3805; HiP-FA: 33 mM phosphate pH 7.0, 90 mM NaCl, 0.01% Tween 20, 0.1 mM DTT, 0.5% agarose; conventional titration and EMSA: 20 mM Tris-acetate pH 7.0, 50 nM (sic) NaCl, 0.01% Tween-20, 0.1 mM DTT
# [5] = molecular target: T1, Bicoid DBD-GST (Bcd); experiment: competitive fluorescence anisotropy (HiP-FA); mean of replicates 45.665, 45.961; HiP-FA: 33 mM phosphate pH 7.0, 90 mM NaCl, 0.01% Tween 20, 0.1 mM DTT, 0.5% agarose; conventional titration and EMSA: 20 mM Tris-acetate pH 7.0, 50 nM (sic) NaCl, 0.01% Tween-20, 0.1 mM DTT
# [6] = molecular target: T1, Bicoid DBD-GST (Bcd); experiment: competitive fluorescence anisotropy (HiP-FA); mean of replicates 133.924, 123.07; HiP-FA: 33 mM phosphate pH 7.0, 90 mM NaCl, 0.01% Tween 20, 0.1 mM DTT, 0.5% agarose; conventional titration and EMSA: 20 mM Tris-acetate pH 7.0, 50 nM (sic) NaCl, 0.01% Tween-20, 0.1 mM DTT
# [7] = molecular target: T1, Bicoid DBD-GST (Bcd); experiment: competitive fluorescence anisotropy (HiP-FA); mean of replicates 94.126, 94.115; HiP-FA: 33 mM phosphate pH 7.0, 90 mM NaCl, 0.01% Tween 20, 0.1 mM DTT, 0.5% agarose; conventional titration and EMSA: 20 mM Tris-acetate pH 7.0, 50 nM (sic) NaCl, 0.01% Tween-20, 0.1 mM DTT
# [8] = molecular target: T1, Bicoid DBD-GST (Bcd); experiment: competitive fluorescence anisotropy (HiP-FA); mean of replicates 19.276, 18.3665; HiP-FA: 33 mM phosphate pH 7.0, 90 mM NaCl, 0.01% Tween 20, 0.1 mM DTT, 0.5% agarose; conventional titration and EMSA: 20 mM Tris-acetate pH 7.0, 50 nM (sic) NaCl, 0.01% Tween-20, 0.1 mM DTT
# [9] = molecular target: T1, Bicoid DBD-GST (Bcd); experiment: competitive fluorescence anisotropy (HiP-FA); mean of replicates 49.501, 48.184; HiP-FA: 33 mM phosphate pH 7.0, 90 mM NaCl, 0.01% Tween 20, 0.1 mM DTT, 0.5% agarose; conventional titration and EMSA: 20 mM Tris-acetate pH 7.0, 50 nM (sic) NaCl, 0.01% Tween-20, 0.1 mM DTT
# [10] = molecular target: T1, Bicoid DBD-GST (Bcd); experiment: competitive fluorescence anisotropy (HiP-FA); mean of replicates 92.598, 91.655; HiP-FA: 33 mM phosphate pH 7.0, 90 mM NaCl, 0.01% Tween 20, 0.1 mM DTT, 0.5% agarose; conventional titration and EMSA: 20 mM Tris-acetate pH 7.0, 50 nM (sic) NaCl, 0.01% Tween-20, 0.1 mM DTT
# [11] = molecular target: T1, Bicoid DBD-GST (Bcd); experiment: competitive fluorescence anisotropy (HiP-FA); mean of replicates 28.134, 26.319; HiP-FA: 33 mM phosphate pH 7.0, 90 mM NaCl, 0.01% Tween 20, 0.1 mM DTT, 0.5% agarose; conventional titration and EMSA: 20 mM Tris-acetate pH 7.0, 50 nM (sic) NaCl, 0.01% Tween-20, 0.1 mM DTT
# [12] = molecular target: T1, Bicoid DBD-GST (Bcd); experiment: competitive fluorescence anisotropy (HiP-FA); mean of replicates 49.725, 45.8965; HiP-FA: 33 mM phosphate pH 7.0, 90 mM NaCl, 0.01% Tween 20, 0.1 mM DTT, 0.5% agarose; conventional titration and EMSA: 20 mM Tris-acetate pH 7.0, 50 nM (sic) NaCl, 0.01% Tween-20, 0.1 mM DTT
# [13] = molecular target: T1, Bicoid DBD-GST (Bcd); experiment: competitive fluorescence anisotropy (HiP-FA); mean of replicates 14.726, 13.4865; HiP-FA: 33 mM phosphate pH 7.0, 90 mM NaCl, 0.01% Tween 20, 0.1 mM DTT, 0.5% agarose; conventional titration and EMSA: 20 mM Tris-acetate pH 7.0, 50 nM (sic) NaCl, 0.01% Tween-20, 0.1 mM DTT
# [14] = molecular target: T1, Bicoid DBD-GST (Bcd); experiment: competitive fluorescence anisotropy (HiP-FA); mean of replicates 8.014, 7.5595; HiP-FA: 33 mM phosphate pH 7.0, 90 mM NaCl, 0.01% Tween 20, 0.1 mM DTT, 0.5% agarose; conventional titration and EMSA: 20 mM Tris-acetate pH 7.0, 50 nM (sic) NaCl, 0.01% Tween-20, 0.1 mM DTT
# [15] = molecular target: T1, Bicoid DBD-GST (Bcd); experiment: competitive fluorescence anisotropy (HiP-FA); mean of replicates 12.922, 12.5195; HiP-FA: 33 mM phosphate pH 7.0, 90 mM NaCl, 0.01% Tween 20, 0.1 mM DTT, 0.5% agarose; conventional titration and EMSA: 20 mM Tris-acetate pH 7.0, 50 nM (sic) NaCl, 0.01% Tween-20, 0.1 mM DTT
# [16] = molecular target: T1, Bicoid DBD-GST (Bcd); experiment: competitive fluorescence anisotropy (HiP-FA); mean of replicates 2.804, 2.596; HiP-FA: 33 mM phosphate pH 7.0, 90 mM NaCl, 0.01% Tween 20, 0.1 mM DTT, 0.5% agarose; conventional titration and EMSA: 20 mM Tris-acetate pH 7.0, 50 nM (sic) NaCl, 0.01% Tween-20, 0.1 mM DTT
# [17] = molecular target: T1, Bicoid DBD-GST (Bcd); experiment: competitive fluorescence anisotropy (HiP-FA); mean of replicates 3.661, 3.6795; HiP-FA: 33 mM phosphate pH 7.0, 90 mM NaCl, 0.01% Tween 20, 0.1 mM DTT, 0.5% agarose; conventional titration and EMSA: 20 mM Tris-acetate pH 7.0, 50 nM (sic) NaCl, 0.01% Tween-20, 0.1 mM DTT
# [18] = molecular target: T1, Bicoid DBD-GST (Bcd); experiment: competitive fluorescence anisotropy (HiP-FA); mean of replicates 3.19, 4.8725; HiP-FA: 33 mM phosphate pH 7.0, 90 mM NaCl, 0.01% Tween 20, 0.1 mM DTT, 0.5% agarose; conventional titration and EMSA: 20 mM Tris-acetate pH 7.0, 50 nM (sic) NaCl, 0.01% Tween-20, 0.1 mM DTT
# [19] = molecular target: T1, Bicoid DBD-GST (Bcd); experiment: competitive fluorescence anisotropy (HiP-FA); mean of replicates 4.834, 5.5235; HiP-FA: 33 mM phosphate pH 7.0, 90 mM NaCl, 0.01% Tween 20, 0.1 mM DTT, 0.5% agarose; conventional titration and EMSA: 20 mM Tris-acetate pH 7.0, 50 nM (sic) NaCl, 0.01% Tween-20, 0.1 mM DTT
binder,measurement,setting,value
B1,Kd,[1],64.3 nM
B2,Kd,[2],8.98 nM
B3,Kd,[3],29.4 nM
B4,Kd,[4],146 nM
B5,Kd,[5],45.8 nM
B6,Kd,[6],128 nM
B7,Kd,[7],94.1 nM
B8,Kd,[8],18.8 nM
B9,Kd,[9],48.8 nM
B10,Kd,[10],92.1 nM
B11,Kd,[11],27.2 nM
B12,Kd,[12],47.8 nM
B13,Kd,[13],14.1 nM
B14,Kd,[14],7.79 nM
B15,Kd,[15],12.7 nM
B16,Kd,[16],2.7 nM
B17,Kd,[17],3.67 nM
B18,Kd,[18],4.03 nM
B19,Kd,[19],5.18 nM
